Reference: article PMC4104756

Target: poly-(α,β)-DL-aspartic acid sodium salt
Assay: turbidity at 600 nm + light microscopy
Settings: scale: polyHis:polyAsp

volume ratio polyHis:polyAsp at maximum turbidity: 0.82
Substance: poly-L-histidine (peptide)
